Experimental data as given in patent US20220227872A1 (published 2022).

T1: hTEM1-SpyC (human TEM1 extracellular domain fused to SpyCatcher) (UniProt Q9HCU0 18-687, covalently bound to biotinylated SpyTag peptide (bSpyT))
T1 chain: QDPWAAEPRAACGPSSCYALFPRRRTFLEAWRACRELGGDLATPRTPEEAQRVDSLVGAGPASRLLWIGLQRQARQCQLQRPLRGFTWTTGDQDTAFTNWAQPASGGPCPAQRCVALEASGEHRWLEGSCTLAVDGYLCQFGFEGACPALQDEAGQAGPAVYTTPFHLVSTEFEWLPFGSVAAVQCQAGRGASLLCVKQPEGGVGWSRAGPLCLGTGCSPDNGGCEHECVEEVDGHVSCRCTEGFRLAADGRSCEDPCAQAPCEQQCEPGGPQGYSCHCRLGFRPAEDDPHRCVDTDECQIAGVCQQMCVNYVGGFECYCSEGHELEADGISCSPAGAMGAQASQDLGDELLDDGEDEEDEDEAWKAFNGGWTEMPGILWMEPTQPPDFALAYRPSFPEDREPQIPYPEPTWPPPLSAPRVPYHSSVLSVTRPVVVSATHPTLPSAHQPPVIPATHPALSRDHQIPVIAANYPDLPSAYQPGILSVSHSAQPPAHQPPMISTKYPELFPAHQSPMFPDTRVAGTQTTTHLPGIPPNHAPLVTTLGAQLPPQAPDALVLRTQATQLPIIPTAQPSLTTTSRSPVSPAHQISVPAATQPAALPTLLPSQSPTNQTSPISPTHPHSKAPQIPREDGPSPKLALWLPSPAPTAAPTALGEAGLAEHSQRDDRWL


Key:
1C1 BiTE = test: SPR; BiTE analyte, hTEM1-SpyC immobilized
[1] = target: T1, hTEM1-SpyC (human TEM1 extracellular …); test: SPR; BiTE analyte, hTEM1-SpyC immobilized

Row | Kd (1C1 BiTE) [nM] | Kd [1] [nM] | Binder
1 | ~68 |  | hTEM1-SpyC (other, covalently bound to biotinylated SpyTag peptide (bSpyT)) QDPWAAEPRAACGPSSCYALFPRRRTFLEAWRACRELGGDLATPRTPEEAQRVDSLVGAGPASRLLWIGLQRQARQCQLQRPLRGFTWTTGDQDTAFTNWAQPASGGPCPAQRCVALEASGEHRWLEGSCTLAVDGYLCQFGFEGACPALQDEAGQAGPAVYTTPFHLVSTEFEWLPFGSVAAVQCQAGRGASLLCVKQPEGGVGWSRAGPLCLGTGCSPDNGGCEHECVEEVDGHVSCRCTEGFRLAADGRSCEDPCAQAPCEQQCEPGGPQGYSCHCRLGFRPAEDDPHRCVDTDECQIAGVCQQMCVNYVGGFECYCSEGHELEADGISCSPAGAMGAQASQDLGDELLDDGEDEEDEDEAWKAFNGGWTEMPGILWMEPTQPPDFALAYRPSFPEDREPQIPYPEPTWPPPLSAPRVPYHSSVLSVTRPVVVSATHPTLPSAHQPPVIPATHPALSRDHQIPVIAANYPDLPSAYQPGILSVSHSAQPPAHQPPMISTKYPELFPAHQSPMFPDTRVAGTQTTTHLPGIPPNHAPLVTTLGAQLPPQAPDALVLRTQATQLPIIPTAQPSLTTTSRSPVSPAHQISVPAATQPAALPTLLPSQSPTNQTSPISPTHPHSKAPQIPREDGPSPKLALWLPSPAPTAAPTALGEAGLAEHSQRDDRWL
2 |  | ~1 | 1C1mut BiTE (1C1mut scFv fused to an scFv derived from anti-CD3 clone UCHT1) (bispecific antibody, V domains shown) VH: QVQLVQSGAEVKKPGSSVKVSCKASGGTFSSYAISWVRQAPGQGLEWMGGIIPIFGTANYAQKFQGRVTITADKSTSTAYMELSSLRSEDTAVYYCASLISYYGDPTGFDYWGQGTLVTVSS VL: not shown
